Source: patent publication US20100197768A1 (UNIVERSITY OF ROCHESTER, published 2010)

B1: N1/2 (CD1-NCD1, a.a. 1-208 of hA3G) (other, human, UniProt Q9HC16 1-208, looked up)
chain: MKPHFRNTVERMYRDTFSYNFYNRPILSRRNTVWLCYEVKTKGPSRPPLDAKIFRGQVYSELKYHPEMRFFHWFSKWRKLHRDQEYEVTWYISWSPCTKCTRDMATFLAEDPKVTLTIFVARLYYFWDPDYQEALRSLCQKRDGPRATMKIMNYDEFQHCWSKFVYSQRELFEPWNNLPKYYILLHIMLGEILRHSMDPPTFTFNFNN
notes: range 1-208; Expressed in 293T cells; tested in RNase A treated cell extracts; also called N-terminal half of hA3G; not shown: N-terminal tag HA, V5, EGFP-HA or EGFP-V5, differing by experiment
B2: CD1 (catalytic domain 1, a.a. 1-143 of hA3G) (other, human, UniProt Q9HC16 1-143, looked up, not shown: small tags and cut ends)
chain: MKPHFRNTVERMYRDTFSYNFYNRPILSRRNTVWLCYEVKTKGPSRPPLDAKIFRGQVYSELKYHPEMRFFHWFSKWRKLHRDQEYEVTWYISWSPCTKCTRDMATFLAEDPKVTLTIFVARLYYFWDPDYQEALRSLCQKRD
notes: range 1-143; also called N-terminal catalytic domain
B3: C3/4 (larger C-terminal domain lacking only CD1, a.a. 144-384 of hA3G) (other, human, UniProt Q9HC16 144-384, looked up)
chain: GPRATMKIMNYDEFQHCWSKFVYSQRELFEPWNNLPKYYILLHIMLGEILRHSMDPPTFTFNFNNEPWVRGRHETYLCYEVERMHNDTWVLLNQRRGFLCNQAPHKHGFLEGRHAELCFLDVIPFWKLDLDQDYRVTCFTSWSPCFSCAQEMAKFISKNKHVSLCIFTARIYDDQGRCQEGLRTLAEAGAKISIMTYSEFKHCWDTFVDHQGCPFQPWDGLDEHSQDLSGRLRAILQNQEN
notes: range 144-384; not shown: N-terminal tag HA, V5, EGFP-HA or EGFP-V5, differing by experiment
B4: CD2 (catalytic domain 2, a.a. 209-336 of hA3G) (other, human, UniProt Q9HC16 209-336, looked up)
chain: EPWVRGRHETYLCYEVERMHNDTWVLLNQRRGFLCNQAPHKHGFLEGRHAELCFLDVIPFWKLDLDQDYRVTCFTSWSPCFSCAQEMAKFISKNKHVSLCIFTARIYDDQGRCQEGLRTLAEAGAKIS
notes: also called C-terminal catalytic domain; not shown: N-terminal tag HA, V5, EGFP-HA or EGFP-V5, differing by experiment
B5: NCD1 (non-catalytic domain 1, a.a. 144-208 of hA3G) (other, human, UniProt Q9HC16 144-208, looked up)
chain: GPRATMKIMNYDEFQHCWSKFVYSQRELFEPWNNLPKYYILLHIMLGEILRHSMDPPTFTFNFNN
notes: range 144-208; not shown: N-terminal tag HA, V5, EGFP-HA or EGFP-V5, differing by experiment
B6: C1/2 (CD2-NCD2, a.a. 209-384 of hA3G) (other, human, UniProt Q9HC16 209-384, looked up)
chain: EPWVRGRHETYLCYEVERMHNDTWVLLNQRRGFLCNQAPHKHGFLEGRHAELCFLDVIPFWKLDLDQDYRVTCFTSWSPCFSCAQEMAKFISKNKHVSLCIFTARIYDDQGRCQEGLRTLAEAGAKISIMTYSEFKHCWDTFVDHQGCPFQPWDGLDEHSQDLSGRLRAILQNQEN
notes: Self co-IP was done with and without EGFP (±EGFP); also called C-terminal half of hA3G; not shown: N-terminal tag HA, V5, EGFP-HA or EGFP-V5, differing by experiment
B7: NCD2 (non-catalytic domain 2, a.a. 337-384 of hA3G) (other, human, UniProt Q9HC16 337-384, looked up)
chain: IMTYSEFKHCWDTFVDHQGCPFQPWDGLDEHSQDLSGRLRAILQNQEN
notes: range 337-384; not shown: N-terminal tag HA, V5, EGFP-HA or EGFP-V5, differing by experiment

Key:
[1] = target: T1, Protein A (agarose beads, no antibody) (UniProt P38507 37-477); assay: IP with Protein A beads alone
T1 construct: Bead-only control of the immunoprecipitations; also called Protein A beads
Protocol: (§1) Twenty-four hours after transfection the cells were harvested and cell extracts were analyzed by co-immunoprecipitation (co-IP). Extracts were treated with RNase A prior to IP to eliminate interactions that were due to RNA bridging.
(§2) Co-immunoprecipitation analysis. […] 24 hours after transfection cell extracts were harvested in NP-40 lysis buffer (50 mM Tris pH 7.4, 150 mM NaCl, 0.1% NP-40) with Complete® Mini EDTA free protease inhibitors (Roche). Cell extracts were treated with 40 μg/mL of RNase A for 1 hour at 37° C. and subsequently pre-cleared with Protein A agarose beads (Roche) tumbling for 1 hour at 4° C. The pre-cleared extracts were split and added to a Protein A bead slurry±V5 (Invitrogen) or GFP antibody (Clontech) for immunoprecipitation by tumbling overnight at 4° C. The beads were washed 3 times with NP-40 lysis buffer and eluted 3 times with 1×Treat (50 mM Tris pH 7.4, 10 mM DTT, 0.1% SDS).

[2] = target: the molecule itself; assay: co-IP of HA and V5 tagged forms, V5 IP, HA western
Protocol: as §1, §2

[3] = target: T2, HIV-1 p55 Gag polyprotein (HIV-1, UniProt P12493 2-500); assay: V5 IP of hA3G domain, p24 western for Gag, RNase A treated 293T extracts
T2 construct: Expressed in 293T cells co-transfected with HIV-1 DNA; detected with a p24 antibody
Protocol: Co-IP experiments were performed using various hA3G domains and Gag or Vif following RNase A digestion of cell extracts.
as §2

[4] = target: the molecule itself; assay: co-IP of HA and V5 tagged forms, V5 IP, HA western, RNase A treated 293T extracts
Protocol: as §1, §2

[5] = target: B2; assay: co-IP of HA and V5 tagged domains, V5 IP, HA western
Protocol: as §1, §2

[6] = target: the molecule itself; assay: summary of the co-IP results of Example 2
Protocol: as §1, §2

[7] = target: B1; assay: co-IP of HA and V5 tagged domains, V5 IP, HA western
Protocol: as §1, §2

EGFP-HA tagged Vif = target: T3, EGFP-HA tagged Vif (HIV-1, UniProt P12504 1-192); assay: GFP antibody IP of EGFP-HA-Vif, western for the hA3G domain, RNase A treated 293T extracts
T3 construct: Expressed in 293T cells from pIRES-P; also called EGFP-HA-Vif; HIV-1 Vif; not shown: N-terminal EGFP-HA tag

[8] = target: B5; assay: co-IP of HA and V5 tagged domains, V5 IP, HA western
Protocol: as §1, §2

T3 sequence (P12504 whole entry, the tested form may be a part): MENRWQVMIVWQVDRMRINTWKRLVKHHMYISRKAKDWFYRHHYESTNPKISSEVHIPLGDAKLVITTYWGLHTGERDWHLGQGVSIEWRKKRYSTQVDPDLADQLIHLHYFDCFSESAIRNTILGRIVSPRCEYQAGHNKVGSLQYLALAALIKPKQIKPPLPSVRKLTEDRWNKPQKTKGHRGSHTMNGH

Binder	binding result [1]	binding result [2]	binding result [3]	further results
B1	no binding	no binding	–	–
B2	no binding	no binding	no binding	–
B3	no binding	–	–	binding result [4]: binds
B4	no binding	–	no binding	binding result [5]: no binding; binding result [6]: binds
B5	no binding	no binding	–	–
B6	no binding	–	no binding	binding result [4]: binds; binding result [7]: no binding; binding result (EGFP-HA tagged Vif): no binding
B7	no binding	no binding	–	binding result [8]: no binding
